Test results published in publication PMC6499331, “Transcriptional gene silencing requires dedicated interaction between HP1 protein Chp2 and chromatin remodeler Mit1” (Genes & Development, 2019).

T1: StrepSumo-tagged Mit1CII with engineered PkVvL motif instead of CkIvV (S. pombe, UniProt Q9P793 1-81, PkVvL motif instead of CkIvV)
T1 construct: Mit1, S. pombe, CII, residues 1-81; residues 9-13 CKIVV changed to PKVVL; also called Mit1 PxVxL substitution mutant; PxVxL substitution; source: E. coli BL21(DE3) or Rosetta (DE3), purified (Streptactin, SEC); not shown: Strep-SUMO, N-terminal, kept
T1 sequence (looked up): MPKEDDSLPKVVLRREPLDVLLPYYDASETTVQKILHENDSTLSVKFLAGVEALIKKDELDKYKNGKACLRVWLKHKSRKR

T2: StrepSumo-tagged Mit1CII wild type (S. pombe, UniProt Q9P793 1-81)
T2 construct: The Strep-SUMO tag was left on for stabilization; also called wild-type Mit1CII; source: E. coli BL21(DE3) or Rosetta (DE3), purified (Streptactin, SEC); not shown: Strep-SUMO, N-terminal, kept
T2 sequence (looked up): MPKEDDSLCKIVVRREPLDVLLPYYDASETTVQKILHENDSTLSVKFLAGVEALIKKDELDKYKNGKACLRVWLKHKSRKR

T3: StrepSumo-tagged Mit1CII I11R (S. pombe, UniProt Q9P793 1-81, I11R)
T3 construct: Mit1, S. pombe, CII, residues 1-81, I11R; also called Mit1I11R; Mit1 I11R; source: E. coli BL21(DE3) or Rosetta (DE3), purified (Streptactin, SEC); not shown: Strep-SUMO, N-terminal, kept
T3 sequence (looked up): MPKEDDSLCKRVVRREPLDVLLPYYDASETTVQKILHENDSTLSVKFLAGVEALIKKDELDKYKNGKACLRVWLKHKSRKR

T4: Mit1(1-81), Chp2 interaction interface (CII), tag removed (S. pombe, UniProt Q9P793 1-81)
T4 construct: Mit1, S. pombe, residues 1-81 (CkIvV motif 9-13, linker 15-31, CD-like domain); Density is seen for residues 8-81; also called Mit1CII; source: E. coli BL21(DE3) or Rosetta (DE3), coexpressed with Chp2CSD, purified as a complex (Streptactin, Ulp1, SEC); not shown: Strep-SUMO, N-terminal, cleaved
T4 sequence (looked up): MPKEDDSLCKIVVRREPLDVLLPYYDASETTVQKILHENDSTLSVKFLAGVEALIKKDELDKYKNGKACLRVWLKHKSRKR


How the values were obtained:
[1] = target: T1, StrepSumo-tagged Mit1CII with …; test: ITC; 25°C; 400 mM NaCl, 50 mM Tris-HCl pH 7.5, 5 mM β-mercaptoethanol; Chp2 or Swi6 at 100 to 500 µM injected into the cell holding StrepSumo-tagged Mit1 constructs at 5 to 50 µM; VP-ITC or Nano ITC (Mit1CIIΔCDL); details: both partners purified
[2] = target: T2, StrepSumo-tagged Mit1CII wild type; test: as above; details: both partners purified
[3] = target: T3, StrepSumo-tagged Mit1CII I11R; test: as above; details: both partners purified
[4] = target: StrepSumo-tagged Mit1CIIΔCDL (S. pombe); test: as above
[5] = target: the molecule itself; test: crystal structure; Mit1(1-81)–Chp2(316-380), coexpressed in E. coli, purified as a complex; hanging drops at 18°C, 2.4 M sodium malonate pH 7, 3% 1,6-hexanediol; 1.6 Å
[6] = target: T4, Mit1(1-81), Chp2 interaction interface …; test: as above; details: both partners purified

Row | Binder | Kd [1] [µM] | Kd [2] [µM] | Kd [3] [µM] | Kd [4] [nM] | stoichiometry N [5] | stoichiometry N [6] [Chp2CSD chains per Mit1]
1 | Swi6CSD (domain or fragment, S. pombe, UniProt P40381 267-328, looked up, Swi6, HP1 protein, S. pombe, chromoshadow domain (CSD); A crystal structure of the free Swi6CSD dimer (PDB 1E0B) is cited; also called Swi6 chromoshadow domain; source: E. coli BL21(DE3) or Rosetta (DE3), purified (Streptactin, on-column Ulp1 cleavage, SEC); not shown: Strep-SUMO, N-terminal, cleaved) DSWEDLVSSIDTIERKDDGTLEIYLTWKNGAISHHPSTITNKKCPQKMLQFYESHLTFRENE | 15 | 28 | – | – | – | –
2 | Chp2CSD (expressed alone, tag removed, for ITC) (domain or fragment, S. pombe, Chp2, S. pombe, chromoshadow domain (CSD); limits 316-380 are printed for the crystallised CSD construct, not for the ITC sample; source: E. coli BL21(DE3) or Rosetta (DE3), purified (Streptactin, Ulp1, MonoS); not shown: Strep-SUMO, N-terminal, cleaved) KPPFQKKSWEDLVDCVKTVQQLDNGKLIAKIKWKNGYVSTHDNIIIHQKCPLKIIEYYEAHIKFT | 0.0082 | 0.0026 | 21.5 | 2200 | – | –
3 | Chp2CSD, Chp2(316-380), untagged, coexpressed with Mit1 fragments (domain or fragment, S. pombe, UniProt O42934 316-380, looked up, Chp2, S. pombe, chromoshadow domain, residues 316-380; Cloned without tag into pACE2 for coexpression; Limits 316-380 are printed for the crystallised complex; also called chromo shadow domain of Chp2; Chp2CSD2; source: E. coli BL21(DE3) or Rosetta (DE3), coexpressed with Mit1 fragments, purified as a complex) KPPFQKKSWEDLVDCVKTVQQLDNGKLIAKIKWKNGYVSTHDNIIIHQKCPLKIIEYYEAHIKFT | – | – | – | – | 2 | 2
